Data: PMC12313933 (Nature Communications, 2025)

Columns and labels:
dynamic light scattering = biological target: the molecule itself; test: dynamic light scattering
crystal structure = biological target: the molecule itself; test: crystal structure

Row | Protein | stoichiometry N (dynamic light scattering) | binding result (crystal structure)
1 | MIF(Y100H) variant (enzyme, human) MPMFIVNTNVPRASVPDGFLSELTQQLAQATGKPPQYIAVHVVPDQLMAFGGSSEPCALCSLHSIGKIGGAQNRSYSKLLCGLLAERLRISPDRVYINYHDMNAANVGWNNSTFA | 3 | –
2 | MIF(S61H/Y100H) variant (enzyme, human) MPMFIVNTNVPRASVPDGFLSELTQQLAQATGKPPQYIAVHVVPDQLMAFGGSSEPCALCHLHSIGKIGGAQNRSYSKLLCGLLAERLRISPDRVYINYHDMNAANVGWNNSTFA | – | binds
